Assay results reported in patent US20220411514A1, “ANTI-GAL3 ANTIBODIES AND METHODS OF USE FOR INSULIN RESISTANCE” (TrueBinding, Inc., priority 2021, published 2022).

Legend:
Assay type in all cases: binding
Conditions in all cases: Example 14
[1] = biological target: T1, His-EK-ratGal3 (Rattus norvegicus, UniProt P08699); experiment: Affinity kinetics to rat Gal3 (Biacore T200)
T1 sequence (P08699 1-262): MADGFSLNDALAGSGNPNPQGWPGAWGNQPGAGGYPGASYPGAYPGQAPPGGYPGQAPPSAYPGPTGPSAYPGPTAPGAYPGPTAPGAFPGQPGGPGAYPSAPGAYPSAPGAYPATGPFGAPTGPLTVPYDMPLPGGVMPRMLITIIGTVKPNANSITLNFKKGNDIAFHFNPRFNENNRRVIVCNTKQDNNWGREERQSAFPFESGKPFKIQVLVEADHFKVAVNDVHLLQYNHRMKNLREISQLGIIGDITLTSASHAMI
Method: In each sample cycle, duplicates of the same antibody in HBS-EP+ with 0.5 mg/mL BSA at 10 μg/mL were captured to FC2 and FC4 by flowing at 10.0 μL/min for 120 seconds, and then diluted His-EK-ratGal3 in HBS-EP+ with 0.5 mg/mL BSA was injected to all 4 flow cells at 30.0 μL/min for 180 seconds, followed by dissociation for 240 seconds. A dilution series of His-EK-ratGal3 started from 300 nM, and was 1:3 diluted for 6 points. FC1 and FC3 were used as reference flow cells, and their sensograms were subtracted from FC2 and FC4 respectively to reduce non-specific binding background. Also, an additional sample cycle at 0 nM analyte was run, and its sensogram was subtracted from those of non-zero nM cycles to address machine drifts and bulk shifts. The data were analyzed by Biacore Evaluation software version 2.0. The binding affinities were characterized by fitting the kinetic sensograms to a monovalent binding model (1:1 binding).
(§1) The affinity of Gal3 binding to antibody was determined by acquiring real time Ligand:Analyte binding kinetics data and fitting the data with a 1:1 monovalent binding model. The kinetic evaluation procedure determines association and dissociation constants by fitting the experimental data to a 1:1 interaction model between analyte A and ligand B:
(§2) The affinity KD is the result of Kd divided by Ka.
(§3) The protocol disclosed in Example 9 was generally followed.

[2] = biological target: T2, human Gal3 (Homo sapiens, UniProt P17931); experiment: Affinity kinetics to human Gal3 (Carterra LSA)
T2 construct: 6xHis (linker-spaced) (C); purchased AcroBio (Acro Biosystems) GA3-H5129
T2 sequence (P17931 whole entry): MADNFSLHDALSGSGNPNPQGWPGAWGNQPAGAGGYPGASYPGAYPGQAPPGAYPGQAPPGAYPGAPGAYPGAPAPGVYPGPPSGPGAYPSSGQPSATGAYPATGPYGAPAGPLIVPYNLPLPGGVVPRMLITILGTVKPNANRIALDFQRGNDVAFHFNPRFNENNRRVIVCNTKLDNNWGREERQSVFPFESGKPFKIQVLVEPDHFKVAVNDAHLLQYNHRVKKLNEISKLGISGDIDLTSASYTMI
Method: (§4) Kinetics experiments were performed on a Carterra LSA at 25° C.
(§5) Then, a dilution series of Gal3 (2, 4, 8, 16, 32, 64, and 128 nM) in HBSTE with 0.5 mg/mL BSA was injected to the whole array for 300 seconds to allow association followed by dissociation for 240 seconds. The kinetics constants were calculated by the software NextGenKIT.
as §1, §2, §3

[3] = biological target: mouse Gal3 (Mus musculus, UniProt P16110); experiment: Affinity kinetics to mouse Gal3 (Carterra LSA)
mouse Gal3, sequence (P16110 whole entry): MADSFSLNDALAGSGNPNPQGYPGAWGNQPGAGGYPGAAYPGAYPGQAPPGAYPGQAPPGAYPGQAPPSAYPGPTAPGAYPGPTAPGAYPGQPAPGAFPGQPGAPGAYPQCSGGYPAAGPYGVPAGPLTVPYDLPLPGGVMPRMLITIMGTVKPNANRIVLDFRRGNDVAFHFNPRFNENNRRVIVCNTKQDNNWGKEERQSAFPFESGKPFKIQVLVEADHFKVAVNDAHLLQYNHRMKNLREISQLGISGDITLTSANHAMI
Method: as §4, §5, §1, §2, §3

[4] = biological target: His-EK-cynoGal3; experiment: Affinity kinetics to cynomolgus Gal3 (Biacore T200)
Method: In each cycle, duplicates were made by loading the same antibody to flow cells FC2 and FC4, and then analyte was flowed to all 4 flow cells. The detection was done pairwise, FC2-FC1 and FC4-FC3, to subtract non-specific binding of analyte to the surface. A cycle of 0 nM analyte was run prior to a dilution series of analyte. The 0 nM raw data were subtracted from each non-zero concentration data to minimize machine drifts. The data were analyzed by Biacore Evaluation software version 2.0. The binding affinities were characterized by fitting the kinetic sensograms to a monovalent binding model (1:1 binding).
as §1, §2, §3

Substance: Synagis: negative control antibody, hIgG4 backbone [reference compound]
- average affinity to His-EK-ratGal3 [1]: did not bind
- average affinity to human Gal3 [2]: did not bind
- average affinity to mouse Gal3 [3]: did not show any binding activity
- affinity to His-EK-cynoGal3 [4]: did not bind
